Like-named read-outs stand apart in the source and are kept apart here. Blank lines part the entries; values can stand above or below the binder they belong to.
Assays:
[1] = biological target: human epidermal growth factor receptor (EGFR) on cells and tissues (human, UniProt P00533 25-1210); assay: cell-based or functional assay
[2] = biological target: T1, His-tagged soluble extracellular domain of EGFR (sEGFR-H6; Sino Biologics, Cat #10001-H08H) (human, UniProt P00533 25-645); assay: pH-sensitive ELISA, transfected supernatant adjusted to 2 ng/mL
T1 construct: Bought protein; also called EGFR sECD; soluble extracellular domain of EGF receptor

[3] = biological target: T1, His-tagged soluble extracellular domain …; assay: pH-sensitive ELISA, transfected supernatant adjusted to 4 ng/mL
[4] = biological target: T1, His-tagged soluble extracellular domain …; assay: ELISA on coated sEGFR-H6; pH 6.5, 16.7 mM lactic acid, 25% human serum
[5] = biological target: T1, His-tagged soluble extracellular domain …; assay: ELISA on coated sEGFR-H6; pH 6.0, 16.7 mM lactic acid, 25% human serum
[6] = biological target: T1, His-tagged soluble extracellular domain …; assay: pH-sensitive ELISA, transfected supernatant adjusted to 1 ng/mL
[7] = biological target: T1, His-tagged soluble extracellular domain …; assay: pH-sensitive ELISA on coated sEGFR-H6
[8] = biological target: T1, His-tagged soluble extracellular domain …; assay: ELISA on coated sEGFR-H6; pH 7.4, 1 mM lactic acid, 25% human serum
[9] = biological target: T1, His-tagged soluble extracellular domain …; assay: ELISA on coated sEGFR-H6; pH 6.0, 16.7 mM lactic acid, 25% human serum; remark: listed apart in the source
[10] = biological target: T1, His-tagged soluble extracellular domain …; assay: ELISA on coated sEGFR-H6; pH 7.4, 1 mM lactic acid, 25% human serum; remark: listed apart in the source
[11] = biological target: T1, His-tagged soluble extracellular domain …; assay: ELISA on coated sEGFR-H6; pH 6.5, 16.7 mM lactic acid, 25% human serum; remark: listed apart in the source
[12] = biological target: T1, His-tagged soluble extracellular domain …; assay: pH-sensitive ELISA on coated sEGFR-H6; remark: listed apart in the source
[13] = biological target: T1, His-tagged soluble extracellular domain …; assay: ELISA on coated sEGFR-H6; pH 6.0, 16.7 mM lactic acid, 25% human serum; remark: listed apart in the source
[14] = biological target: T1, His-tagged soluble extracellular domain …; assay: ELISA on coated sEGFR-H6; pH 6.5, 16.7 mM lactic acid, 25% human serum; remark: listed apart in the source
[15] = biological target: T1, His-tagged soluble extracellular domain …; assay: pH-sensitive ELISA on coated sEGFR-H6; remark: listed apart in the source
[16] = biological target: T1, His-tagged soluble extracellular domain …; assay: ELISA on coated sEGFR-H6; pH 7.4, 1 mM lactic acid, 25% human serum; remark: listed apart in the source

IC50 for cell growth inhibition of keratinocytes at pH 7.4 [1]: ~17 nM | cell growth inhibition of HT29 cells at pH 6.8; concentration for about 50% inhibition [1]: ~22 nM | cell growth inhibition of HT29 cells at pH 6.8; maximum concentration tested [1]: ~80%
B1: huY104D-MMAE antibody-drug conjugate (antibody, human IgG1, kappa)
heavy: not shown
light: AIQLTQSPSSLSASVGDRVTITCRASQSIGTNIHWYLQKPGQSPQLLIYYASESISGIPDRFSGSGSGTDFTLTISRLEPEDFAVYYCQQNNNWPTTFGQGTKVEIKRTVAAPSVFIFPPSDEQLKSGTASVVCLLNNFYPREAKVQWKVDNALQSGNSQESVTEQDSKDSTYSLSSTLTLSKADYEKHKVYACEVTHQGLSSPVTKSFNRGEC
modifications: MMAE conjugated as described in Example 18 (maleimidocaproyl-vcPAB linker on reduced disulfide cysteines)

pH 6.0/pH 7.4 OD ratio [2]: 7.21 | pH 6.0/pH 7.4 OD ratio [3]: 11.3 | D (maximum) of 4-parameter fit [4]: 3.83 OD450 | EC50 [4]: 6.91 ng/mL | D (maximum) of 4-parameter fit [5]: 3.83 OD450 | EC50 [5]: 4.15 ng/mL | pH 6.0/pH 7.4 OD ratio [6]: 17.4 | ratio of binding activity pH 6.0/7.4 (inverse EC50) [7]: 8.1 | ratio of binding activity pH 6.5/7.4 (inverse EC50) [7]: 4.86 | D (maximum) of 4-parameter fit [8]: 3.14 OD450 | EC50 [8]: 33.6 ng/mL
B2: humanized Y104D/Q111P cetuximab mutant antibody (DP-h7) (antibody, human IgG1, kappa)
heavy: not shown
light: B1 light
notes: Full-length IgG; also called DP-h07

IC50 for cell growth inhibition of keratinocytes at pH 7.4 [1]: ~5.4 nM | cell growth inhibition of HT29 cells at pH 6.8; concentration for about 50% inhibition [1]: ~22 nM | cell growth inhibition of HT29 cells at pH 6.8; maximum concentration tested [1]: ~80%
B3: huY104E-MMAE antibody-drug conjugate (antibody, human IgG1, kappa)
heavy: not shown
light: B1 light
modifications: MMAE conjugated as described in Example 18 (maleimidocaproyl-vcPAB linker on reduced disulfide cysteines)

D (maximum) of 4-parameter fit [4]: 3.89 OD450 | EC50 [4]: 6.37 ng/mL | D (maximum) of 4-parameter fit [5]: 3.92 OD450 | EC50 [5]: 3.92 ng/mL | D (maximum) of 4-parameter fit [9]: 3.91 OD450 | EC50 [9]: 4.28 ng/mL | ratio of binding activity pH 6.0/7.4 (inverse EC50) [7]: 17.8 | ratio of binding activity pH 6.5/7.4 (inverse EC50) [7]: 11 | D (maximum) of 4-parameter fit [10]: 1.83 OD450 | EC50 [10]: 209 ng/mL | D (maximum) of 4-parameter fit [11]: 3.93 OD450 | EC50 [11]: 12.1 ng/mL | D (maximum) of 4-parameter fit [8]: 2.91 OD450 | EC50 [8]: 69.8 ng/mL | ratio of binding activity pH 6.0/7.4 (inverse EC50) [12]: 48.8 | ratio of binding activity pH 6.5/7.4 (inverse EC50) [12]: 17.3
B4: humanized Y104E/Q111P anti-EGFR antibody (EP-h) (antibody, human IgG1, kappa)
heavy: not shown
light: B1 light
notes: Full-length IgG; also called EP-h07

D (maximum) of 4-parameter fit [4]: 3.84 OD450 | EC50 [4]: 7.57 ng/mL | D (maximum) of 4-parameter fit [5]: 3.89 OD450 | EC50 [5]: 4.87 ng/mL | D (maximum) of 4-parameter fit [9]: 3.88 OD450 | EC50 [9]: 6.77 ng/mL | ratio of binding activity pH 6.0/7.4 (inverse EC50) [7]: 6.2 | ratio of binding activity pH 6.5/7.4 (inverse EC50) [7]: 3.99 | D (maximum) of 4-parameter fit [10]: 2.03 OD450 | EC50 [10]: 56.4 ng/mL | D (maximum) of 4-parameter fit [11]: 3.82 OD450 | EC50 [11]: 12.7 ng/mL | D (maximum) of 4-parameter fit [8]: 3.45 OD450 | EC50 [8]: 30.2 ng/mL | ratio of binding activity pH 6.0/7.4 (inverse EC50) [12]: 8.33 | ratio of binding activity pH 6.5/7.4 (inverse EC50) [12]: 4.44
B5: humanized Y104D anti-EGFR antibody (D-h) (antibody, human IgG1, kappa)
heavy: not shown
light: B1 light
notes: Full-length IgG; also called huY104D; D-h07

D (maximum) of 4-parameter fit [4]: 3.85 OD450 | EC50 [4]: 5.87 ng/mL | D (maximum) of 4-parameter fit [5]: 3.92 OD450 | EC50 [5]: 3.18 ng/mL | D (maximum) of 4-parameter fit [9]: 3.87 OD450 | EC50 [9]: 4.82 ng/mL | ratio of binding activity pH 6.0/7.4 (inverse EC50) [7]: 14.5 | ratio of binding activity pH 6.5/7.4 (inverse EC50) [7]: 7.85 | D (maximum) of 4-parameter fit [10]: 1.44 OD450 | EC50 [10]: 59.3 ng/mL | D (maximum) of 4-parameter fit [11]: 3.94 OD450 | EC50 [11]: 9.82 ng/mL | D (maximum) of 4-parameter fit [8]: 3.23 OD450 | EC50 [8]: 46.1 ng/mL | ratio of binding activity pH 6.0/7.4 (inverse EC50) [12]: 12.3 | ratio of binding activity pH 6.5/7.4 (inverse EC50) [12]: 6.04
B6: humanized Y104E anti-EGFR antibody (E-h) (antibody, human IgG1, kappa)
heavy: not shown
light: B1 light
notes: Full-length IgG; also called huY104E; E-h07

D (maximum) of 4-parameter fit [13]: 3.79 OD450 | EC50 [13]: 4.33 ng/mL | D (maximum) of 4-parameter fit [14]: 3.76 OD450 | EC50 [14]: 4.87 ng/mL | ratio of binding activity pH 6.0/7.4 (inverse EC50) [15]: 7.53 | ratio of binding activity pH 6.5/7.4 (inverse EC50) [15]: 6.69 | D (maximum) of 4-parameter fit [16]: 3.65 OD450 | EC50 [16]: 32.6 ng/mL
B7: flag-tagged humanized T030F/Y104D/Q111P mutant anti-EGFR antibody (FDP-h3) (antibody, human IgG1, kappa, V domains shown)
VH: EVQLVQSGAEVKKPGATVKISCKVSGFSLFNYGVHWVRQATGQGLEWMGVIWSGGNTDYNTPFTSRFTISRDDSKNTAYLQMNSLKTEDTAVYYCARALTYYDDEFAYWGPGTLVTVSS
VL: AIQLTQSPSSLSASVGDRVTITCRASQSIGTNIHWYLQKPGQSPQLLIYYASESISGIPDRFSGSGSGTDFTLTISRLEPEDFAVYYCQQNNNWPTTFGQGTKVEIKR
notes: also called FDP-h03
